Data reported in article PMC3187938.

Biological target: affinity-matured, humanized, antiprostate stem-cell antigen (PSCA) minibody (clone A11.1 2C3)
Assay: SEC

- stoichiometry N: 2
B1: affinity-matured, humanized, antiprostate stem-cell antigen (PSCA) minibody (clone A11.1 2C3) (antibody, V domains shown)
VH: EVQLVEYGGGLVQPGGSLRLSCAASGFNIKDYYIHWVRQAPGKGLEWVAWIDPENGDTEFVPKFQGRATMSADTSKNTAYLQMNSLRAEDTAVYYCKTGGFWGQGTLVTVSS
VL: DIQLTQSPSTLSASMGDRVTITCSASSSVRFIHWYQQKPGKAPKRLIYDTSKLASGVPSRFSGSGSGTDFTLTISSLQPEDFATYYCQQWGSSPFTFGQGTKVEIK
